{
  "source": "paper PMC10449631",
  "about": "(Nature Chemical Biology, 2023)",
  "key": {"[1]": {"target": "T1, PaAP_T (P. aeruginosa aminopeptidase, C-terminal truncated) (Pseudomonas aeruginosa, UniProt Q02PA2)", "T1 construct": "PaAP (WT, residues 27–536); His6 (TEV cleavable) (N, cleaved yes); made in house; host or cells: E. coli SHuffle T7", "T1 sequence (Q02PA2 whole entry, looked up)": "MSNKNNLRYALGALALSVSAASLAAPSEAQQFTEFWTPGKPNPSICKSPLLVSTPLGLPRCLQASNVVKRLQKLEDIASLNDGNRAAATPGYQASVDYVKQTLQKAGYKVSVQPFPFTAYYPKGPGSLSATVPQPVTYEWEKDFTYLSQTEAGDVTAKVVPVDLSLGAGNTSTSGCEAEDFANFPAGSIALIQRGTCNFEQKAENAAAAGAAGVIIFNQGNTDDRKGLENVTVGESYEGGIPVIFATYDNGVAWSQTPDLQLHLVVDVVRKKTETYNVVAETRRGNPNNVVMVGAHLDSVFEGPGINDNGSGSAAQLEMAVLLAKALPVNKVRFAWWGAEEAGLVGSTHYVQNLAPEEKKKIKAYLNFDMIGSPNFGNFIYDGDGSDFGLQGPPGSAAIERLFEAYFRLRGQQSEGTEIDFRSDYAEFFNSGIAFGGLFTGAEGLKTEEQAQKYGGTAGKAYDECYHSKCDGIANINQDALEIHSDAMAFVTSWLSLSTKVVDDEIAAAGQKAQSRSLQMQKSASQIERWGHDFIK", "experiment": "Inhibition of PaAP_T in the Leu-pNA aminopeptidase assay (KI, IC50)", "type": "biochemical", "details": "for IC50 plot data (PaAP_T activity at given peptide concentration): (S) = 2 mM, PaAP 100 nM", "description": "Aminopeptidase activity was determined spectrophotometrically primarily using amino Leu-pNA. Other commercially available pNA substrates (isoleucine, methionine, alanine, valine, proline, arginine, lysine and phenylalanine) were also assayed. Leu-pNA was incubated with enzyme (100 nM) in assay buffer (50 mM Tris, pH 8.5, 200 mM NaCl) at 25 °C. A pNA release caused an absorbance increase at 405 nm, monitored using a BMG Labtech plate reader. […] Data were plotted in GraphPad Prism (version 9) and the Michalis Menten equation was used for fitting.\nInhibition assays were carried out with the following peptides: linear-ERWGHDFIK (PaAP C-terminal residues), cyclic-ERWGHDFIK, N-acetylated and C-amidated ERWGHDFIK. IC50 values were determined by varying peptide concentration at a fixed substrate concentration (fixed at KM, (S) = 2 mM, PaAP concentration was 100 nM). […] KI values were determined by fitting the data to equation (1) (Morrison’s equation):1 v=1−Et+I+KI−Et+I+KI^2−4EtIKI/2Et where v is the velocity, Et is the total enzyme concentration, I is the concentration of inhibitor and KI is the equilibrium dissociation constant for the inhibitor. IC50 values increased when measured at increasing S, consistent with competitive inhibition."}, "PaAP": {"target": "T2, PaAP (Pseudomonas aeruginosa, UniProt Q02PA2, A513L/Q514V/S515P)", "T2 construct": "PaAP (WT, residues 27–536); His6 (TEV cleavable) (N, cleaved yes); made in house; host or cells: E. coli SHuffle T7", "T2 sequence (Q02PA2 37-516 A513L/Q514V/S515P)": "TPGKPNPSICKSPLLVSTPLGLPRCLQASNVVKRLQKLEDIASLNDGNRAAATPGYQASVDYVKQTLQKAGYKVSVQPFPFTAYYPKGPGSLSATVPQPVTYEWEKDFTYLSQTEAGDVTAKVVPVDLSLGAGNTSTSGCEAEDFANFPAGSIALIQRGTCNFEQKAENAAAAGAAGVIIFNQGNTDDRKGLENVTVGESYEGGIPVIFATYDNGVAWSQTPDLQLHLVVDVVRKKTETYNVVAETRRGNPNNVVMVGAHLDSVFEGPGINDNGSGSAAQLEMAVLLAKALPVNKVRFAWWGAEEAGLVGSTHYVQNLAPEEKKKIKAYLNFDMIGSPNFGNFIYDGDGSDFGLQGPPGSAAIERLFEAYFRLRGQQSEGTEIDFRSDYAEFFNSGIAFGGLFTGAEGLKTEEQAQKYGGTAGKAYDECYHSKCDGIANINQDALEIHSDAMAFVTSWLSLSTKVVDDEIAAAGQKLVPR", "experiment": "Peptide digestion assay (overnight and time course, LC-MS/MALDI)", "type": "biochemical", "details": "for substrate of / degraded by PaAP (words): incubated with PaAP overnight, LC–MS or MALDI; for P0 (parent peptide, LC–MS signal): 500 μM peptide, 1 μM PaAP_T", "description": "A variety of peptides of varying lengths and compositions were incubated with PaAP at room temperature. Assays were performed by incubating (overnight at room temperature) 500 μM of substrate (peptides) with 1 μM enzyme (PaAP) in reaction buffer (50 mM Tris, pH 8.5, 100 mM NaCl). The reactions were quenched by heating to 100 °C for 10 min followed by centrifugation at 17,000g in a benchtop centrifuge to remove precipitate. Supernatant was collected and samples were analyzed by LC–MS. Initial trial assays were carried out in the presence and absence (control) of enzyme to determine if the substrate was degraded (single or triplicate experiments). Time-course assays were performed on selected peptide substrates in triplicate. A 300 μl reaction (including 500 μM of substrate) was initiated by the addition of 1 μM enzyme. The reaction was incubated at room temperature. The reaction was quenched at set timepoints by the removal of 30 μl aliquots, which were immediately heated to 100 °C for 10 min. The samples were analyzed by LC–MS using a Xevo Q-ToF (Waters) as described below, searching for masses of all peptide breakdown products.\nPeptide degradation time courses were fitted to exponential equations as follows:\nP0 peptide consumption was fitted to a single exponential equation (equation (2)) with the format2 yt=y0−Plateaue^−kt+Plateau\nTime courses for the formation and decay of peptide intermediates were fitted to double exponential equations (equation (3)) and single exponential equations, followed by a linear phase (4)3 yt=y0−Plateau1e^−k1t+y0−Plateau2e^−k2t+Plateau 4 yt=y0−Plateaue^−kt+vt+Plateau where y(t) is the product formed at time t, y0 − Plateau is the amplitude of the exponential phase, k is the observed rate constant for the exponential phase, y0 is the value of y at time 0, Plateau is the value of y after exponential phase, C is the offset and v is the slope of the linear phase.\nPeptide samples incubated in the presence and absence of PaAP were initially analyzed by MALDI. The peptide sample (0.5 µl at 10 µM) was spotted along with matrix (0.5 µl 10 mg ml^−1 α-cyano-4-hydroxycinnamic acid in ACN/0.1% TFA (50/50, vol/vol)) on a stainless steel MALDI plate and left to dry. The sample plate was loaded into a Sciex 4800 MALDI mass spectrometer. The laser voltage was adjusted to give a good signal to noise strength, and 50 shots were acquired in a random pattern across the spot and spectra combined. The spectra were externally calibrated with Sciex Pepcal mix (range: 500–4,000 m/z)."}},
  "note": "Values joined by “and” are separate entries in the source; they are usually repeats but may differ in a detail not shown here. Identical values can stand only once. No end group written: not given here.",
  "data": [
    {"substance": "Ac-ERWGHDFIK: N-terminally acetylated ERWGHDFIK", "values": [
      {"measurement": "IC50 relative to unmodified linear ERWGHDFIK", "setting": "[1]; Leu-pNA assay", "value": "stronger inhibitor (lower IC50)"},
      {"measurement": "IC50 plot data (PaAP_T activity at given peptide concentration)", "setting": "[1]; log(I) 0", "value": "14.1847 and 14.0241 and 15.9398"},
      {"measurement": "IC50 plot data (PaAP_T activity at given peptide concentration)", "setting": "[1]; log(I) 0.39794", "value": "10.4257 and 10.2008 and 11.7831"},
      {"measurement": "IC50 plot data (PaAP_T activity at given peptide concentration)", "setting": "[1]; log(I) 0.69897", "value": "7.759 and 8.43 and 9.606"},
      {"measurement": "IC50 plot data (PaAP_T activity at given peptide concentration)", "setting": "[1]; log(I) 1", "value": "6.157 and 6.578 and 7.803"},
      {"measurement": "IC50 plot data (PaAP_T activity at given peptide concentration)", "setting": "[1]; log(I) 1.39794", "value": "4.438 and 4.522 and 4.703"},
      {"measurement": "IC50 plot data (PaAP_T activity at given peptide concentration)", "setting": "[1]; log(I) 1.69897", "value": "3.468 and 3.7992 and 3.497"},
      {"measurement": "IC50 plot data (PaAP_T activity at given peptide concentration)", "setting": "[1]; log(I) 2", "value": "2.457 and 2.349 and 2.539"},
      {"measurement": "IC50 plot data (PaAP_T activity at given peptide concentration)", "setting": "[1]; log(I) 2.39794", "value": "1.727 and 1.944 and 1.78"},
      {"measurement": "IC50 plot data (PaAP_T activity at given peptide concentration)", "setting": "[1]; log(I) -0.30103", "value": "21.8755 and 21.5663 and 25.7068"},
      {"measurement": "IC50 plot data (PaAP_T activity at given peptide concentration)", "setting": "[1]; log(I) -0.60206", "value": "31.9277 and 31.253 and 35.5141"},
      {"measurement": "IC50 plot data (PaAP_T activity at given peptide concentration)", "setting": "[1]; log(I) -1", "value": "57.8715 and 59.5181 and 63.1727"},
      {"measurement": "IC50 plot data (PaAP_T activity at given peptide concentration)", "setting": "[1]; log(I) -1.30103", "value": "96.8273 and 103.173"},
      {"measurement": "substrate of / degraded by PaAP (words)", "setting": "PaAP", "value": "is not a substrate"}
    ]},
    {"substance": "ERLGHDFIK [… peptide with W replaced by L]", "values": [
      {"measurement": "P0 (parent peptide, LC–MS signal)", "setting": "PaAP; time 0 minutes", "value": "242839 and 266621 and 225820"},
      {"measurement": "P0 (parent peptide, LC–MS signal)", "setting": "PaAP; time 5 minutes", "value": "120859 and 126339 and 82871.9"},
      {"measurement": "P0 (parent peptide, LC–MS signal)", "setting": "PaAP; time 10 minutes", "value": "45005.2 and 53825.2 and 41072.7"},
      {"measurement": "P0 (parent peptide, LC–MS signal)", "setting": "PaAP; time 30 minutes", "value": "28627.8 and 28689.7 and 21100.6"},
      {"measurement": "P0 (parent peptide, LC–MS signal)", "setting": "PaAP; time 60 minutes", "value": "29596.5 and 28748.7 and 27907.5"},
      {"measurement": "P0 (parent peptide, LC–MS signal)", "setting": "PaAP; time 90 minutes", "value": "29084.8 and 28644.1 and 25592.5"},
      {"measurement": "P0 (parent peptide, LC–MS signal)", "setting": "PaAP; time 120 minutes", "value": "30548.5 and 27618.8 and 28168.1"},
      {"measurement": "P0 (parent peptide, LC–MS signal)", "setting": "PaAP; time 180 minutes", "value": "31516.5 and 29951.1 and 28383.1"},
      {"measurement": "P0 (parent peptide, LC–MS signal)", "setting": "PaAP; time 1220 minutes", "value": "25934 and 29596.2 and 25678.6"},
      {"measurement": "relative rate of degradation by PaAP", "setting": "PaAP; time-course assay, LC–MS", "value": "degraded at a faster rate than ERWGHDFIK"}
    ]},
    {"substance": "ERWGHDFIK (head-to-tail): ERWGHDFIK peptide cyclized head-to-tail (head-to-tail cyclized)", "values": [
      {"measurement": "inhibition of PaAP_T", "setting": "[1]; Leu-pNA assay", "value": "very poor inhibitors"},
      {"measurement": "IC50 plot data (PaAP_T activity at given peptide concentration)", "setting": "[1]; log(I) 0", "value": "101.617 and 102.323 and 98.6769"},
      {"measurement": "IC50 plot data (PaAP_T activity at given peptide concentration)", "setting": "[1]; log(I) 0.39794", "value": "100.735 and 102.44 and 95.9718"},
      {"measurement": "IC50 plot data (PaAP_T activity at given peptide concentration)", "setting": "[1]; log(I) 0.69897", "value": "96.6774 and 96.207 and 104.322"},
      {"measurement": "IC50 plot data (PaAP_T activity at given peptide concentration)", "setting": "[1]; log(I) 1", "value": "101.558 and 102.323 and 97.1479"},
      {"measurement": "IC50 plot data (PaAP_T activity at given peptide concentration)", "setting": "[1]; log(I) 1.39794", "value": "95.7365 and 95.8542 and 103.44"},
      {"measurement": "IC50 plot data (PaAP_T activity at given peptide concentration)", "setting": "[1]; log(I) 1.69897", "value": "85.1514 and 85.6807 and 79.6236"},
      {"measurement": "IC50 plot data (PaAP_T activity at given peptide concentration)", "setting": "[1]; log(I) 2", "value": "68.1564 and 67.5684 and 61.9818"},
      {"measurement": "IC50 plot data (PaAP_T activity at given peptide concentration)", "setting": "[1]; log(I) 2.39794", "value": "37.6478 and 35.5307 and 32.0024"},
      {"measurement": "IC50 plot data (PaAP_T activity at given peptide concentration)", "setting": "[1]; log(I) -0.30103", "value": "93.6783 and 96.7951 and 93.6195"},
      {"measurement": "IC50 plot data (PaAP_T activity at given peptide concentration)", "setting": "[1]; log(I) -0.60206", "value": "99.853 and 100.676 and 98.5004"},
      {"measurement": "IC50 plot data (PaAP_T activity at given peptide concentration)", "setting": "[1]; log(I) -1", "value": "98.7357 and 97.5007 and 102.499"},
      {"measurement": "IC50 plot data (PaAP_T activity at given peptide concentration)", "setting": "[1]; log(I) -1.30103", "value": "86.6216 and 85.5631 and 74.2723"}
    ]},
    {"substance": "RYLGYL: casein-derived peptide (UniProt P02662 105-110, looked up, fragment) [reference compound]", "values": [
      {"measurement": "substrate of / degraded by PaAP (words)", "setting": "PaAP", "value": "capable of processing"}
    ]}
  ]
}
